Test results: patent US20230143604A1, “QW DOSING OF GIP RECEPTOR AGONIST PEPTIDE COMPOUNDS AND USES THEREOF” (TAKEDA PHARMACEUTICAL COMPANY LIMITED, priority 2020, published 2023)
Starred links: 1 amine or outer side, 2 acyl side, 3 side chain; linkers in the order of their positions; H or OH if unused. Non-standard residues stand in square brackets, D forms with d. Groups on a side chain read outwards from the residue. No end group written: not given here. *: point of attachment. C18 diacid = O=C(O)CCCCCCCCCCCCCCCCC(=O)*; C17 diacid = O=C(O)CCCCCCCCCCCCCCCC(=O)*; γGlu = O=C(O)[C@H](CCC(=O)[*:2])N[*:1]; NMeY = CN[C@@H](Cc1ccc(O)cc1)C(=O)O; AEEA = NCCOCCOCC(=O)O; E∗ = not defined here; K∗ = not defined here; Aib = CC(C)(N)C(=O)O

T1: full-length human GIPR with an N-terminal FLAG tag, overexpressed on HEK-293T cells (human, UniProt P48546 22-466)
T1 sequence (looked up): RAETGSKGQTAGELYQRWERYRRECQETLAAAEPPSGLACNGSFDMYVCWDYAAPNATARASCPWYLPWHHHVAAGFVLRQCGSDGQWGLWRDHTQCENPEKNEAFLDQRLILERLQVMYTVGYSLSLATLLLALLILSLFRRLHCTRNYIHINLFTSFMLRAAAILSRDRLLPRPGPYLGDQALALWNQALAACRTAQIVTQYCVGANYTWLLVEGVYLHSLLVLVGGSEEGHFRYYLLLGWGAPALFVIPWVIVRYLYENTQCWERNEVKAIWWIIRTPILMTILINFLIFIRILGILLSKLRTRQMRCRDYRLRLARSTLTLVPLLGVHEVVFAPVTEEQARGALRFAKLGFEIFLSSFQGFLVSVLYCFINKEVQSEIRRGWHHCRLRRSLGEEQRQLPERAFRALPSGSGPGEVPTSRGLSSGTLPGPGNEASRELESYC


Legend:
[1] = biological target: full-length human GLP-1R with an N-terminal FLAG tag, overexpressed on HEK-293T cells (human, UniProt P43220 24-463); test: cell-based or functional assay
[2] = biological target: T1, full-length human GIPR with an …; test: cell-based or functional assay

Binder | Human GLP1R cAMP EC50, HEK293T [1] | Human GIPR cAMP EC50, HEK293T [2]
[NMeY][Aib]EGTFISDYSIALDR[Aib]HQ[Aib]NFVNWK([AEEA-AEEA-γGlu-C18 diacid])LAQR-NH2 [Compound No. 186] | 1000 nM | 0.0003 nM
H-Y[Aib]EGTFISDYSI[Aib]LDKAK([AEEA-AEEA-γGlu-C18 diacid])QQDFVNWLLAQRG-OH (SMILES CC[C@H](C)[C@H](NC(=O)[C@H](Cc1ccccc1)NC(=O)[C@@H](NC(=O)CNC(=O)[C@H](CCC(=O)O)NC(=O)C(C)(C)NC(=O)[C@@H](N)Cc1ccc(O)cc1)[C@@H](C)O)C(=O)N[C@@H](CO)C(=O)N[C@@H](CC(=O)O)C(=O)N[C@@H](Cc1ccc(O)cc1)C(=O)N[C@@H](CO)C(=O)N[C@H](C(=O)NC(C)(C)C(=O)N[C@@H](CC(C)C)C(=O)N[C@@H](CC(=O)O)C(=O)N[C@@H](CCCCN)C(=O)N[C@@H](C)C(=O)N[C@@H](CCCCNC(=O)COCCOCCNC(=O)COCCOCCNC(=O)CC[C@H](NC(=O)CCCCCCCCCCCCCCCCC(=O)O)C(=O)O)C(=O)N[C@@H](CCC(N)=O)C(=O)N[C@@H](CCC(N)=O)C(=O)N[C@@H](CC(=O)O)C(=O)N[C@@H](Cc1ccccc1)C(=O)N[C@H](C(=O)N[C@@H](CC(N)=O)C(=O)N[C@@H](Cc1c[nH]c2ccccc12)C(=O)N[C@@H](CC(C)C)C(=O)N[C@@H](CC(C)C)C(=O)N[C@@H](C)C(=O)N[C@@H](CCC(N)=O)C(=O)N[C@@H](CCCNC(=N)N)C(=O)NCC(=O)O)C(C)C)[C@@H](C)CC) [Compound No. 170] | 61.7 nM | 0.0005 nM
Me-Y[Aib]EGTFISDYSIALDKAAQ[Aib]K([AEEA-AEEA-γGlu-γGlu-C18 diacid])FVNWLLAQRG-OH [Compound No. 176] | 40.7 nM | 0.0003 nM
Y[Aib]EGTFISDYSIAMDKK([AEEA-AEEA-γGlu-C18 diacid])HQQDFVNWLLAQKGKKNDWKHNITQ-OH [Compound No. 188] | 132 nM | 0.0019 nM
YXEGTFISDYSIALDRXHQXNFVNELLKQXPSSGAPPPS (N-terminal Me (Me-Tyr 1); Aib at 2, 17, 20; E* at 25 and K* at 28 (mark * as printed, not explained); Km at 30 = Lys(2OEGgE-C18DA); C-terminus NH2) [Compound No. 185] | 1000 nM | 0.001 nM
[NMeY][Aib]EGTFISDYSIALDR[Aib]HQQNFVNWLLAQK([AEEA-AEEA-γGlu-C18 diacid]) [Compound No. 191] | 97.7 nM | 0.0032 nM
YXEGTFISDYSIAXDRIAQRNFVEWLLAQSPSSGAPPPS (N-terminal Me (Me-Tyr 1); Aib at 2; Km at 14 = Lys(G5-C18DA); C-terminus OH) [Compound No. 179] | 2.88 nM | 0.0008 nM
Me-Y[Aib]EGTFISDYSIALDR[E∗]HQ[K∗]NFVNWLLAQK([AEEA-AEEA-γGlu-C18 diacid])PSSGAPPPS-NH2 (not fully specified (residue 1); reading uncertain; also: E* at 17 and K* at 20 marked, meaning not given here) [Compound No. 183] | 162 nM | 0.0007 nM
Me-Y[Aib]EGTFISDYSIALDR[Aib]HQ[E∗]NF[K∗]NWLLAQK([AEEA-AEEA-γGlu-C18 diacid])PSSGAPPPS-NH2 (not fully specified (residue 1); reading uncertain; also: E* at 20 and K* at 23 marked, meaning not given here) [Compound No. 182] | 214 nM | 0.0525 nM
[NMeY][Aib]EGTFISDYSIALDRIHQQNFVNWLLAQK([AEEA-AEEA-γGlu-C18 diacid])PSSGAPPPS-NH2 [Compound No. 190] | 97.7 nM | 0.0005 nM
Y[Aib]EGTFISDYSIAK([AEEA-AEEA-γGlu-C18 diacid])DKIHQQDFVNWLLAQKGKKNDWKHNITQ-OH [Compound No. 187] | 562 nM | 0.0032 nM
H-Y[Aib]EGTFISDYSI[Aib]LDKAK([AEEA-AEEA-γGlu-C18 diacid])QADFVNWLLAQRG-OH (SMILES CC[C@H](C)[C@H](NC(=O)[C@H](Cc1ccccc1)NC(=O)[C@@H](NC(=O)CNC(=O)[C@H](CCC(=O)O)NC(=O)C(C)(C)NC(=O)[C@@H](N)Cc1ccc(O)cc1)[C@@H](C)O)C(=O)N[C@@H](CO)C(=O)N[C@@H](CC(=O)O)C(=O)N[C@@H](Cc1ccc(O)cc1)C(=O)N[C@@H](CO)C(=O)N[C@H](C(=O)NC(C)(C)C(=O)N[C@@H](CC(C)C)C(=O)N[C@@H](CC(=O)O)C(=O)N[C@@H](CCCCN)C(=O)N[C@@H](C)C(=O)N[C@@H](CCCCNC(=O)COCCOCCNC(=O)COCCOCCNC(=O)CC[C@H](NC(=O)CCCCCCCCCCCCCCCCC(=O)O)C(=O)O)C(=O)N[C@@H](CCC(N)=O)C(=O)N[C@@H](C)C(=O)N[C@@H](CC(=O)O)C(=O)N[C@@H](Cc1ccccc1)C(=O)N[C@H](C(=O)N[C@@H](CC(N)=O)C(=O)N[C@@H](Cc1c[nH]c2ccccc12)C(=O)N[C@@H](CC(C)C)C(=O)N[C@@H](CC(C)C)C(=O)N[C@@H](C)C(=O)N[C@@H](CCC(N)=O)C(=O)N[C@@H](CCCNC(=N)N)C(=O)NCC(=O)O)C(C)C)[C@@H](C)CC) [Compound No. 171] | 83.2 nM | 0.0006 nM
H-Y[Aib]EGTFISDYSI[Aib]LDKAK([AEEA-AEEA-γGlu-C18 diacid])QQDFVEWLLAQRG-OH (SMILES CC[C@H](C)[C@H](NC(=O)[C@H](Cc1ccccc1)NC(=O)[C@@H](NC(=O)CNC(=O)[C@H](CCC(=O)O)NC(=O)C(C)(C)NC(=O)[C@@H](N)Cc1ccc(O)cc1)[C@@H](C)O)C(=O)N[C@@H](CO)C(=O)N[C@@H](CC(=O)O)C(=O)N[C@@H](Cc1ccc(O)cc1)C(=O)N[C@@H](CO)C(=O)N[C@H](C(=O)NC(C)(C)C(=O)N[C@@H](CC(C)C)C(=O)N[C@@H](CC(=O)O)C(=O)N[C@@H](CCCCN)C(=O)N[C@@H](C)C(=O)N[C@@H](CCCCNC(=O)COCCOCCNC(=O)COCCOCCNC(=O)CC[C@H](NC(=O)CCCCCCCCCCCCCCCCC(=O)O)C(=O)O)C(=O)N[C@@H](CCC(N)=O)C(=O)N[C@@H](CCC(N)=O)C(=O)N[C@@H](CC(=O)O)C(=O)N[C@@H](Cc1ccccc1)C(=O)N[C@H](C(=O)N[C@@H](CCC(=O)O)C(=O)N[C@@H](Cc1c[nH]c2ccccc12)C(=O)N[C@@H](CC(C)C)C(=O)N[C@@H](CC(C)C)C(=O)N[C@@H](C)C(=O)N[C@@H](CCC(N)=O)C(=O)N[C@@H](CCCNC(=N)N)C(=O)NCC(=O)O)C(C)C)[C@@H](C)CC) [Compound No. 169] | 178 nM | 0.0008 nM
Me-Y[Aib]EGTFISDYSIALDRAAQQK([AEEA-AEEA-γGlu-γGlu-C18 diacid])FVNWLLAQSPG-OH [Compound No. 178] | 186 nM | 0.0006 nM
[NMeY][Aib]EGTFISDYSIAK([AEEA-AEEA-γGlu-γGlu-C17 diacid])DR[Aib]AQ[Aib]NFVNWLLAQS-OH [Compound No. 192] | 178 nM | 0.0002 nM
YXEGTFISDYSIAXDRIAQRNFVEWLLAQSPG (N-terminal Me (Me-Tyr 1); Aib at 2; Km at 14 = Lys(G5-C18DA); C-terminus OH) [Compound No. 180] | 5.75 nM | 0.0009 nM
Me-Y[Aib]EGTFISDYSIALDRIAQQK([AEEA-AEEA-γGlu-γGlu-C18 diacid])FVNWLLAQSPSSGAPPPS-OH [Compound No. 177] | 100 nM | 0.0003 nM
Me-Y[Aib]EGTFISDYSIALDKAAQ[Aib]K([AEEA-AEEA-γGlu-γGlu-C18 diacid])FVEWLLAQRG-OH [Compound No. 174] | 47.9 nM | 0.0004 nM
Me-Y[Aib]EGTFISDYSIALDKIAQ[Aib]K([AEEA-AEEA-γGlu-γGlu-C18 diacid])FVNWLLAQRG-OH [Compound No. 175] | 58.9 nM | 0.0007 nM
Me-Y[Aib]EGTFISDYSIALDKIAQ[Aib]K([AEEA-AEEA-γGlu-γGlu-C18 diacid])FVEWLLAQRG-OH [Compound No. 173] | 105 nM | 0.0003 nM
